Experimental findings from IntAct's records for PubMed 10646860 are described below.

First the molecules themselves.
B1: Apoptosis-stimulating of p53 protein 2 (Homo sapiens), Q13625 (parent)
chain: MMPMFLTVYLSNNEQHFTEVPVTPETICRDVVDLCKEPGESDCHLAEVWCGSERPVADNERMFDVLQRFGSQRNEVRFFLRHERPPGRDIVSGPRSQDPSLKRNGVKVPGEYRRKENGVNSPRMDLTLAELQEMASRQQQQIEAQQQLLATKEQRLKFLKQQDQRQQQQVAEQEKLKRLKEIAENQEAKLKKVRALKGHVEQKRLSNGKLVEEIEQMNNLFQQKQRELVLAVSKVEELTRQLEMLKNGRIDSHHDNQSAVAELDRLYKELQLRNKLNQEQNAKLQQQRECLNKRNSEVAVMDKRVNELRDRLWKKKAALQQKENLPVSSDGNLPQQAASAPSRVAAVGPYIQSSTMPRMPSRPELLVKPALPDGSLVIQASEGPMKIQTLPNMRSGAASQTKGSKIHPVGPDWSPSNADLFPSQGSASVPQSTGNALDQVDDGEVPLREKEKKVRPFSMFDAVDQSNAPPSFGTLRKNQSSEDILRDAQVANKNVAKVPPPVPTKPKQINLPYFGQTNQPPSDIKPDGSSQQLSTVVPSMGTKPKPAGQQPRVLLSPSIPSVGQDQTLSPGSKQESPPAAAVRPFTPQPSKDTLLPPFRKPQTVAASSIYSMYTQQQAPGKNFQQAVQSALTKTHTRGPHFSSVYGKPVIAAAQNQQQHPENIYSNSQGKPGSPEPETEPVSSVQENHENERIPRPLSPTKLLPFLSNPYRNQSDADLEALRKKLSNAPRPLKKRSSITEPEGPNGPNIQKLLYQRTTIAAMETISVPSYPSKSASVTASSESPVEIQNPYLHVEPEKEVVSLVPESLSPEDVGNASTENSDMPAPSPGLDYEPEGVPDNSPNLQNNPEEPNPEAPHVLDVYLEEYPPYPPPPYPSGEPEGPGEDSVSMRPPEITGQVSLPPGKRTNLRKTGSERIAHGMRVKFNPLALLLDSSLEGEFDLVQRIIYEVDDPSLPNDEGITALHNAVCAGHTEIVKFLVQFGVNVNAADSDGWTPLHCAASCNNVQVCKFLVESGAAVFAMTYSDMQTAADKCEEMEEGYTQCSQFLYGVQEKMGIMNKGVIYALWDYEPQNDDELPMKEGDCMTIIHREDEDEIEWWWARLNDKEGYVPRNLLGLYPRIKPRQRSLA

The variants in this test derive from B1. As to conditions: with apcl_human APC2, O95996.
Chain of apcl_human APC2, O95996 (O95996 whole entry): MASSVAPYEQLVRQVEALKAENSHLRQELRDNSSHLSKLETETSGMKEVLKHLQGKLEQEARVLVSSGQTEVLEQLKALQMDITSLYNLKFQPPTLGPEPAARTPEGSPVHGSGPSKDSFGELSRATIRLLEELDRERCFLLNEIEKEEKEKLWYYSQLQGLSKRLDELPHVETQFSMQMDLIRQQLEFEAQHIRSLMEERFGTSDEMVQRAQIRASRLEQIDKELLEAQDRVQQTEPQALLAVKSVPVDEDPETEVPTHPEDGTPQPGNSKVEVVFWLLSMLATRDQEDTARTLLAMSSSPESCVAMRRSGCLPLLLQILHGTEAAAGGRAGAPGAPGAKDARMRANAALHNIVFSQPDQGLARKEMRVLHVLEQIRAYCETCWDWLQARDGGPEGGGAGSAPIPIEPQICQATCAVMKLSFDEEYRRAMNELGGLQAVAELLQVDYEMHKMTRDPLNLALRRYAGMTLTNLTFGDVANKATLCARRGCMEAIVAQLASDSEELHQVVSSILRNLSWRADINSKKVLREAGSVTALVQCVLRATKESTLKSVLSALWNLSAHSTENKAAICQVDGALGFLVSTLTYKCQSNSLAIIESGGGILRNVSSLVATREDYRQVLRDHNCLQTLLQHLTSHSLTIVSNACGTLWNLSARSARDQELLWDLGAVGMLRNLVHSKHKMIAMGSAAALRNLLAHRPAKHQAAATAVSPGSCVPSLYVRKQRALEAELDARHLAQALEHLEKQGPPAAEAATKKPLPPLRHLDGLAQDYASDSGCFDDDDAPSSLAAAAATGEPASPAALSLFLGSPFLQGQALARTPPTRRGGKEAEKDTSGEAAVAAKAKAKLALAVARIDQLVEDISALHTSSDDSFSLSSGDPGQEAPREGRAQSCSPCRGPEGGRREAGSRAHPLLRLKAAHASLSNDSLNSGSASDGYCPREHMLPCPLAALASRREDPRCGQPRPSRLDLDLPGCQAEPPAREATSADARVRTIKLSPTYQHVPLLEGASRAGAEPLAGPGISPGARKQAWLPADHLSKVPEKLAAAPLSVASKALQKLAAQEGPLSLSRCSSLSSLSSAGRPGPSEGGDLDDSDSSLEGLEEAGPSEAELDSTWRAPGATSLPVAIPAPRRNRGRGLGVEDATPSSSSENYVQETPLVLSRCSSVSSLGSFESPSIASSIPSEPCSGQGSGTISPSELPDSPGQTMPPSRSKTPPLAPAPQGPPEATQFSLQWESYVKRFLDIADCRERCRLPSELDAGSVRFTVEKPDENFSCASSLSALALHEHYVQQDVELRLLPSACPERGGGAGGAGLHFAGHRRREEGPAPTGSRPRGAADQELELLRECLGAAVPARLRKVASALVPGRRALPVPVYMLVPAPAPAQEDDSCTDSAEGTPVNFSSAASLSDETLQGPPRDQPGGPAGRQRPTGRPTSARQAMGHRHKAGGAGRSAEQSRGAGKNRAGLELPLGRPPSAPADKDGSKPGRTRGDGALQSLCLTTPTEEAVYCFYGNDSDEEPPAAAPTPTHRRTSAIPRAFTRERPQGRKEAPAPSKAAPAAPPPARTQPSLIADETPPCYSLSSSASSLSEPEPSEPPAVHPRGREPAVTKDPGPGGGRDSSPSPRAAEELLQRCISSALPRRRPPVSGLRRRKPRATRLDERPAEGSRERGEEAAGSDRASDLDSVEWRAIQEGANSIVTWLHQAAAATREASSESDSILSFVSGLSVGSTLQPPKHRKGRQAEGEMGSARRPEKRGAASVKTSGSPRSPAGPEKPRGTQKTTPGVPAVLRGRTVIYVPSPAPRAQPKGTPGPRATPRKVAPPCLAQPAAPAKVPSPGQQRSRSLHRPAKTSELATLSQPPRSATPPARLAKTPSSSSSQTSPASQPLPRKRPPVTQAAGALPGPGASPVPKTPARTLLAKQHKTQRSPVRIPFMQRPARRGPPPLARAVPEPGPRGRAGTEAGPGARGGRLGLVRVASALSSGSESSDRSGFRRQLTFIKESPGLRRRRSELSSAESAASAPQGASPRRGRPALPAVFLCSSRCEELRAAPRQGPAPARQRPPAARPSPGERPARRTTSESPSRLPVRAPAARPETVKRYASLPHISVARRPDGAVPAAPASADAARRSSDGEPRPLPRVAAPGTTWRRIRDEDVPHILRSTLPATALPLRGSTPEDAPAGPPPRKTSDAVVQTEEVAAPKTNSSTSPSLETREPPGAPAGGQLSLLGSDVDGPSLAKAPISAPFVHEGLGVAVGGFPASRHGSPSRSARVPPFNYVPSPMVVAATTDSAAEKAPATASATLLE
On to W1098K, for which the “effect of a mutation on the interaction” value is “disrupting interaction strength”.
